# T1: Trim58 PS domain (purified, for SEC-MALLS) (mouse, UniProt Q5NCC9 1-485)
# T1 sequence (looked up): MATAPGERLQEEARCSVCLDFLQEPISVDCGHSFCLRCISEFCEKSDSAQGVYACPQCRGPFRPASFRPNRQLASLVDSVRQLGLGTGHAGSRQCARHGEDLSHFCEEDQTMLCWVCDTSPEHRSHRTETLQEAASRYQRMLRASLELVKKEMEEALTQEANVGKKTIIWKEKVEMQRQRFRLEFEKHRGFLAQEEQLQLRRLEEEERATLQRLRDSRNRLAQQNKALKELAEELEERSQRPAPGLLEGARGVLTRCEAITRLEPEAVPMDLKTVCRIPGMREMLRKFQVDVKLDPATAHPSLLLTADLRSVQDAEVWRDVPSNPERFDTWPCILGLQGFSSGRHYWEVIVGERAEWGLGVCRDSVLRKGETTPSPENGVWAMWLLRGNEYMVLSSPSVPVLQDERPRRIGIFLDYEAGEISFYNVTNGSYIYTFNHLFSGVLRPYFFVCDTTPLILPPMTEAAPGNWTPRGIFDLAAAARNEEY
# Molecular target: T1, Trim58 PS domain (purified, for …)
# Assay: SEC-MALS
binder,measurement,value
GST-DIC (1–120) (domain or fragment) MSDKSDLKAELERKKQRLAQIREEKKRKEEERKKKETDQKKEAAVSVQEESDLEKKRREAEALLQSMGLTTDSPIVPPPMSPSSKSVSTPSEAGSQDSGDGAVGSRRGPIKLGMAKITQV,stoichiometry N,1

# From PMC4203341 (Developmental cell, 2014)
